Test results: PMC4635315 (2015)

Key:
[1] = biological target: BARTL1 (CCDC104/CFAP36) 1-133 (Homo sapiens, UniProt Q96G28); test: fluorescence polarization
BARTL1 (CCDC104/CFAP36) = BARTL1 (CCDC104/CFAP36) (Homo sapiens, UniProt Q96G28); test: fluorescence polarization
BARTL1 (CCDC104/CFAP36), sequence (Q96G28 whole entry): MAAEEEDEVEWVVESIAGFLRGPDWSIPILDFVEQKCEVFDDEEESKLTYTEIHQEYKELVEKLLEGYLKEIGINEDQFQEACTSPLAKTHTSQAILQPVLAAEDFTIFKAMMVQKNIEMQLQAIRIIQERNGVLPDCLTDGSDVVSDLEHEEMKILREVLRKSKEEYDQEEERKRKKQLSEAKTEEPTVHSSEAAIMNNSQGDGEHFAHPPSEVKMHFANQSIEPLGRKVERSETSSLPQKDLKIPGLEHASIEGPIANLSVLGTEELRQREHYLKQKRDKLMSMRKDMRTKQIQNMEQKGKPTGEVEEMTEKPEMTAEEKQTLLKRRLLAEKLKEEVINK

BARTL1 (CCDC104/CFAP36) 1-133, sequence (Q96G28 1-133): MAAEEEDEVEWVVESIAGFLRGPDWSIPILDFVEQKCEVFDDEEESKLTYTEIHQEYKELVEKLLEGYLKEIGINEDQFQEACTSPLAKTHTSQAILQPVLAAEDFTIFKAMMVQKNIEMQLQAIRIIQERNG

- Kd [1]: ~4.3 µM
- Kd (BARTL1 (CCDC104/CFAP36)): ~10 µM
B1: Arl2 (protein)
chain: GLLTILKKMKQKERELRLLMLGLDNAGKTTILKKFNGEDVDTISPTLGFNIKTLEHRGFKLNIWDVGGQKSLRSYWRNYFESTDGLIWVVDSADRQRMQDCQRELQSLLVEERLAGATLLIFANKQDLPGALSCNAIQEALELDSIRSHHWRIQGCSAVTGEDLLPGIDWLLDDISSRVFTAD
modifications: mant-GppNHp-bound Arl2
